Measured values as given in PMC7199964, “Grifolin, neogrifolin and confluentin from the terricolous polypore Albatrellus flettii suppress KRAS expression in human colon cancer cells”.

Tests used:
IMP1 wild type [1] = molecular target: T1, IMP1 wild type (UniProt Q9NZI8 1-577); assay: EMSA; IMP1 0-540 nM; smallest region with affinity; FP: 300 nM IMP1, 10 nM probe (inhibitor assays), binding buffer stock 50 mM Tris-Cl pH 7.4, 12.5 mM EDTA pH 8, 25% glycerol, 0.01% Triton-X, 37 C 30 min; EMSA:; conditions: protein: recombinant; (radiolabeled)
T1 sequence (Q9NZI8 whole entry): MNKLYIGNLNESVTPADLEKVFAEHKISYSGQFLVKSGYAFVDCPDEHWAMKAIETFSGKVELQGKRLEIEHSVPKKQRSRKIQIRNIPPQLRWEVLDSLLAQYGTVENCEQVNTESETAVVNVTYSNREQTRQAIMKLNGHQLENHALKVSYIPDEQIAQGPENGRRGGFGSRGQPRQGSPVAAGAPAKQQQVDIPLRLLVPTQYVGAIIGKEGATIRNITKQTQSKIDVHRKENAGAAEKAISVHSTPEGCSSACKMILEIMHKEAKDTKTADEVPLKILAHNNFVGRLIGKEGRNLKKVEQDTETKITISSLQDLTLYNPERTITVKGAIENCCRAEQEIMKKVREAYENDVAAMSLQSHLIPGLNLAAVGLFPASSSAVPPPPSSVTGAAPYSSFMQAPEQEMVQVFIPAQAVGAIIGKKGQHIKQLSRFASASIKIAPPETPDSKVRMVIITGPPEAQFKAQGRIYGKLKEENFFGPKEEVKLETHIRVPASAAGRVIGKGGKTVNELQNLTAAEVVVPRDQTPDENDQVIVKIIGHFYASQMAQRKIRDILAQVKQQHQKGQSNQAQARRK

IMP1 wild type [2] = molecular target: T1, IMP1 wild type; assay: fluorescence polarization; grifolin up to 100 uM, no effect; FP: 300 nM IMP1, 10 nM probe (inhibitor assays), binding buffer stock 50 mM Tris-Cl pH 7.4, 12.5 mM EDTA pH 8, 25% glycerol, 0.01% Triton-X, 37 C 30 min; EMSA:; conditions: protein: recombinant; label: 3' 6-FL (fluorescein)
KH1to4 IMP1 = KH1to4 IMP1 (UniProt Q9NZI8 195-553); assay: fluorescence polarization; FP: 300 nM IMP1, 10 nM probe (inhibitor assays), binding buffer stock 50 mM Tris-Cl pH 7.4, 12.5 mM EDTA pH 8, 25% glycerol, 0.01% Triton-X, 37 C 30 min; EMSA:; conditions: protein: recombinant; label: 3' 6-FL (fluorescein)
KH1to4 IMP1, sequence (Q9NZI8 195-553): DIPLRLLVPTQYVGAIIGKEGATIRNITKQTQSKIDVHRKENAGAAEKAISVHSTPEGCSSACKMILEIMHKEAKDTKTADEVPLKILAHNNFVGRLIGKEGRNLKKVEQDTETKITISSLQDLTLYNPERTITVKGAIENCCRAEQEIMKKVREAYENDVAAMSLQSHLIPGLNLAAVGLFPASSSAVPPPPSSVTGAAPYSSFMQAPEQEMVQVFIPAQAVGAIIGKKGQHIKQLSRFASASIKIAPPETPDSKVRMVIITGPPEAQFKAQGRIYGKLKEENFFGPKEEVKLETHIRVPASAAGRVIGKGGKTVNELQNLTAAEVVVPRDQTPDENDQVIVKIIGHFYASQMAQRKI

KH3&4 IMP1 (KH34) = KH3&4 IMP1 (KH34) (UniProt Q9NZI8 405-553); assay: fluorescence polarization; confluentin, no effect; FP: 300 nM IMP1, 10 nM probe (inhibitor assays), binding buffer stock 50 mM Tris-Cl pH 7.4, 12.5 mM EDTA pH 8, 25% glycerol, 0.01% Triton-X, 37 C 30 min; EMSA:; conditions: protein: recombinant; label: 3' 6-FL (fluorescein)
KH3&4 IMP1 (KH34), sequence (Q9NZI8 405-553): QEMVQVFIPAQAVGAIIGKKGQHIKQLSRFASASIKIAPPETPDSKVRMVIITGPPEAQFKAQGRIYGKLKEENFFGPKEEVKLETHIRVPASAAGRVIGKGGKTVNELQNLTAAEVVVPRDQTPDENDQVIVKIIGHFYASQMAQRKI

IMP1 wild type [3] = molecular target: T1, IMP1 wild type; assay: fluorescence polarization; FP: 300 nM IMP1, 10 nM probe (inhibitor assays), binding buffer stock 50 mM Tris-Cl pH 7.4, 12.5 mM EDTA pH 8, 25% glycerol, 0.01% Triton-X, 37 C 30 min; EMSA:; conditions: protein: recombinant; label: 3' 6-FL (fluorescein)

B1: 39-nt KRAS RNA nts 147-185 (ssRNA)
RNA: GAAACCUGUCUCUUGGAUAUUCUCGACACAGCAGGUCAU
binding result (IMP1 wild type [1]): binds

B2: 44-nt KRAS RNA (nts 142-185) (ssRNA)
RNA: AUGGAGAAACCUGUCUCUUGGAUAUUCUCGACACAGCAGGUCAU
binding result (IMP1 wild type [2]): binds
binding result (KH1to4 IMP1): binds
binding result (KH3&4 IMP1 (KH34)): binds

B3: 39-nt CD44 RNA (nts 2862-2900) (ssRNA)
RNA: AAAUUAGGGCCCAAUUAAUAAUCAGCAAGAAUUUGAUCG
binding result (IMP1 wild type [3]): binds
